Key:
Adnectin1-tFhuA [1] = experiment: single-channel electrical recording (nanopore, resistive pulse); single Adnectin1-tFhuA sensor in a planar lipid bilayer, EGFR added to the cis side; +20 mV; 300 mM KCl, 10 mM Tris-HCl, pH 8.0, no TCEP; 24 ± 1 °C; two-exponential capture durations (short- and long-lived)
Adnectin1-tFhuA [2] = experiment: single-channel electrical recording (nanopore, resistive pulse); single Adnectin1-tFhuA sensor in a planar lipid bilayer, 20 nM EGFR cis, in the presence of 5% (v/v) fetal bovine serum; +20 mV; filtered at 500 Hz

tau off-1 at 20 nM EGFR, without FBS (Fig. 5i) (Adnectin1-tFhuA [1]): 0.044 s | tau off-2 at 20 nM EGFR, without FBS (Fig. 5i) (Adnectin1-tFhuA [1]): 0.982 s | tau on (released duration) at 10 nM EGFR (Adnectin1-tFhuA [1]): 0.78 s | tau on (released duration) at 20 nM EGFR (Adnectin1-tFhuA [1]): 0.42 s | tau on (released duration) at 20 nM EGFR, without FBS (Fig. 5h) (Adnectin1-tFhuA [1]): 0.4 s | tau on (released duration) at 40 nM EGFR (Adnectin1-tFhuA [1]): 0.25 s | tau off-1 at 20 nM EGFR with 5% FBS (Fig. 5k) (Adnectin1-tFhuA [2]): 0.036 s | tau off-2 (mean duration of long-lived blockades) with 5% FBS (Adnectin1-tFhuA [2]): 0.93 s | tau off-2 at 20 nM EGFR with 5% FBS (Fig. 5k) (Adnectin1-tFhuA [2]): 0.81 s | tau on (released duration) at 20 nM EGFR with 5% FBS (Fig. 5j) (Adnectin1-tFhuA [2]): 0.607 s | tau on-2 with 5% FBS (Adnectin1-tFhuA [2]): 1.7 s
Substance: ectodomain of epidermal growth factor receptor (EGFR) (from UniProt P00533 25-645) (domain or fragment)

Source: PMC10027671
